How the values were obtained:
[1] = biological target: recombinant allophycocyanin of Agarophyton chilensis, αβ unit (Agarophyton chilensis); experiment: SEC; Superdex 200 HiLoad 16/60; oligomer size estimated from a calibration curve of MW standards 1,750-670,000 Da (Bio-Rad gel filtration standard); oligomer of αβ units
[2] = biological target: native allophycocyanin of Agarophyton chilensis, αβ unit (Agarophyton chilensis); experiment: as above

recombinant allophycocyanin of Agarophyton chilensis, αβ unit (complex)
stoichiometry N [1]: 3

native allophycocyanin of Agarophyton chilensis, αβ unit (complex)
stoichiometry N [2]: 3
